Measurements: paper PMC9552611, “MtTRC-1, a Novel Transcription Factor, Regulates Cellulase Production via Directly Modulating the Genes Expression of the Mthac-1 and Mtcbh-1 in Myceliophthora thermophila”

B1: Mthac-1-P7-FP-M4 (dsDNA)
DNA 1: GATGTGTTTTACAATCGTTCTATTTATTCATTGCTTGACTTGTGGG
DNA 2: CCCACAAGTCAAGCAATGAATAAATAGAACGATTGTAAAACACATC

Key:
[1] = target: T1, GST-MtTRC-1-DBD (Myceliophthora thermophila ATCC 42464) (UniProt G2Q031); test: EMSA; details: EMSA: 20 mM Tris-base pH 7.5, 20 mM KCl, 10 mM MgCl2, 2 mM DTT, 0.5 ug/uL BSA, 0.2 mg/mL fish sperm DNA, 5% glycerol, 25 C 30 min, 10 ng probe; gel 5% PAGE …
T1 sequence: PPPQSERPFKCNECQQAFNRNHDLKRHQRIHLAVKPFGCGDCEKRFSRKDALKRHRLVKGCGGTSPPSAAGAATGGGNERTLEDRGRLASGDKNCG

GST-MtTRC-1-DBD = target: T2, GST-MtTRC-1-DBD (Myceliophthora thermophila ATCC 42464, UniProt G2Q031 355-450); test: EMSA; EMSA: 20 mM Tris-base pH 7.5, 20 mM KCl, 10 mM MgCl2, 2 mM DTT, 0.5 ug/uL BSA, 0.2 mg/mL fish sperm DNA, 5% glycerol, 25 C 30 min, 10 ng probe; gel 5% PAGE 0.5x TBE 4 C. Footprinting: 400 ng probe in 40 uL, 25 C 30 min; details: protein: recombinant; tags: GST (N-terminal, pGEX-4T-1); label: Cy5
T2 sequence: T1 sequence

Molecule | binding [1] | binding result (GST-MtTRC-1-DBD)
TTTGCACCATGGAACCTGTGCCCAAAGAACCAAAGAACGCTATTCGCACATATTGCGAATCAGTTGCCAGTGATAGGGGGCGGGGACAGAACCCAAGCCGAGACATACTGTACAACCCAGCGGGTTGTCAATTGCACGCTACATGGTGTAATTTGTATTCCGGACGCACATCATTTCGCAGTTAAGGTTGTGCCCGCTTTTCTGCACTGCCGCTTTGGCGTCTCTTTTTTTTTTTTTTTACGAAGGCTTGCAAGGCGACGTCTTACGCGGTCGGACTTGAATCAGACA (double strand) [Mthac-1-P3] | binds | 
B1 |  | no binding
